Laboratory results as given in patent US20150175708A1.

Experiments:
[1] = target: MET on the cell surface of human tumor cell lines (human) (UniProt P08581); assay: cell-based or functional assay
[2] = target: EGFR on the cell surface of human tumor cell lines (human) (UniProt P00533); assay: cell-based or functional assay

Chain of MET on the cell surface of human tumor cell lines (human) (P08581 25-1390): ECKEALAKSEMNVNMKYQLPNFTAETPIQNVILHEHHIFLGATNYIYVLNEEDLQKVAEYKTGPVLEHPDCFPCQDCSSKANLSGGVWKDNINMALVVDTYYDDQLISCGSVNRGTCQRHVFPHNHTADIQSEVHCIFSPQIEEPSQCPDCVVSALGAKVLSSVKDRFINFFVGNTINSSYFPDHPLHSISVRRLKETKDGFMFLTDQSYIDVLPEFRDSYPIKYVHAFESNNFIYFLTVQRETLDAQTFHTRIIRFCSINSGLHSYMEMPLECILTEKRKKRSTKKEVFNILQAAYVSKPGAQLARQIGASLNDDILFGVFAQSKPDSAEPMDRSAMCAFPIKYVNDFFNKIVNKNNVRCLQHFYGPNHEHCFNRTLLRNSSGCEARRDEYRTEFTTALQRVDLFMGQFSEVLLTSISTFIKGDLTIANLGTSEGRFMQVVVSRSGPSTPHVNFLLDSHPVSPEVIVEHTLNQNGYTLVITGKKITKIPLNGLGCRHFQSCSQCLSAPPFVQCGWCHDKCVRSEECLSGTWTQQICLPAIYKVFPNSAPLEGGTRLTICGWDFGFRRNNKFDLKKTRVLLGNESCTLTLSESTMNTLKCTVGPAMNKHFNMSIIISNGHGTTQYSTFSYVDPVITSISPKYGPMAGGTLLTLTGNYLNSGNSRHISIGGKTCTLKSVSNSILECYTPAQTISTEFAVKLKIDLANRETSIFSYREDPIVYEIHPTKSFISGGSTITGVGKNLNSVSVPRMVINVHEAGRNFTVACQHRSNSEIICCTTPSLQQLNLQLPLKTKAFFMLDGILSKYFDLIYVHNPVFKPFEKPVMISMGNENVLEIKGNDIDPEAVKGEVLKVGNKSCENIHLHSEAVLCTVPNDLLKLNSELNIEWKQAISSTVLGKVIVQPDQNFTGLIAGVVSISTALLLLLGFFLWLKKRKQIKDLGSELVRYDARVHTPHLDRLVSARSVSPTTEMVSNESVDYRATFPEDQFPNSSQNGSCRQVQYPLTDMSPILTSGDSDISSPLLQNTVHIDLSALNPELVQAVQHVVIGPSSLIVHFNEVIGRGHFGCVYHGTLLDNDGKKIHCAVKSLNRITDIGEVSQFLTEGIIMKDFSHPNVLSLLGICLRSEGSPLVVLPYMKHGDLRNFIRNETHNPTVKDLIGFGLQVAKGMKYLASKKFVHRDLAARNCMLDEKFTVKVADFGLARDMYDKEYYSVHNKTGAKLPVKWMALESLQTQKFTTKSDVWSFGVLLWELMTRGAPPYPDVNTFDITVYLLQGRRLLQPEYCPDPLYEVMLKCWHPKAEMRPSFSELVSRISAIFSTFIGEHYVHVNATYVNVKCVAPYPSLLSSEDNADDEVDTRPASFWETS

% cell surface MET remaining, H441 cells, antibody 50 nM; isotype control, reference for the % [1]: 100%
AVG of MFI (staining of cell surface MET), H441 cells, antibody 50 nM; isotype control, reference for the % [1]: 77.4 MFI
% cell surface EGFR remaining, H441 cells, antibody 50 nM; isotype control, reference for the % [2]: 100%
AVG of MFI (staining of cell surface EGFR), H441 cells, antibody 50 nM; isotype control, reference for the % [2]: 56.3 MFI
Substance: hIgG4 (antibody)
